Assay [1] relates to human colon crypts. The assay is described as follows: Screening of reagents for optimization of human intestinal organoids culture (plating efficiency). It is filed as cell-based. The settings on record: First screening (WENR).
The test system of assay [2] is Barrett's Esophagus epithelium. The assay is described as follows: Culture of Barrett's esophagus (BE) organoids. To be noted: FGF10 added to HISC condition.
In assay [3] the test system is mouse organoids. As to the kind of experiment: M cell development in organoids stimulated with RANK ligand. It is filed as cell-based. The protocol:
FIG. 48: A) Mouse organoids were cultured in the presence of different doses recombinant mouse RANKL for 72 h. mRNA expression levels for RANK, the transciption factor SpiB and the M cell-specific markers GP2 and AnnexinV were determined by qPCR.

The test system of assay [4] is pancreatic organoids. As to the kind of experiment: Effect of Noggin on gene expression of pancreatic organoids in expansion medium. The settings on record: EGFRAN vs EGFRA medium.

B1: FGF10: human recombinant FGF10 (Peprotech) (protein, UniProt O15520 38-208, looked up)
Fibroblast growth factor 10: QALGQDMVSPEATNSSSSSFSSPSSAGRHVRSYNHLQGDVRWRKLFSFTKYFLKIEKNGKVSGTKKENCPYSILEITSVEIGVVAVKAINSNYYLAMNKKGKLYGSKEFNNDCKLKERIEENGYNTYASFNWQHNGRQMYVALNGKGAPRRGQKTRRKNTSAHFLPMVVHS
Turning to B1, the “Activity (plating efficiency compared with control after 4 days culture)” value in assay [1] was found to be 0. Moreover, in assay [2], the “Culture duration of BE organoids” value is above 3 months.

B2: Follistatin: growth factor (Peprotech) (protein, UniProt P19883 30-344, looked up)
Follistatin: GNCWLRQAKNGRCQVLYKTELSKEECCSTGRLSTSWTEEDVNDNTLFKWMIFNGGAPNCIPCKETCENVDCGPGKKCRMNKKNKPRCVCAPDCSNITWKGPVCGLDGKTYRNECALLKARCKEQPELEVQYQGRCKKTCRDVFCPGSSTCVVDQTNNAYCVTCNRICPEPASSEQYLCGNDGVTYSSACHLRKATCLLGRSIGLAYEGKCIKAKSCEDIQCTGGKKCLWDFKVGRGRCSLCDELCPDSKSDEPVCASDNATYASECAMKEAACSSGVLLEVKHSGSCNSISEDTEEEEEDEDQDYSFPISSILEW
Consider B2, for which, in assay [1], the “Activity (plating efficiency compared with control after 4 days culture)” value is recorded as 0.

B3: RANK ligand: RANK ligand (RANKL), recombinant (protein, UniProt O14788 140-317, looked up)
Tumor necrosis factor ligand …: IRAEKAMVDGSWLDLAKRSKLEAQPFAHLTINATDIPSGSHKVSLSSWYHDRGWAKISNMTFSNGKLIVNQDGFYYLYANICFRHHETSGDLATEYLQLMVYVTKTSIKIPSSHTLMKGGSTKYWSGNSEFHFYSINVGGFFKLRSGEEISIEVSNPSLLDPDQDATYFGAFKVRDID
As to B3, the “Development of M cells” value in assay [3] was “can develop into M cells”.

B4: Noggin: BMP inhibitor (protein, UniProt Q13253 28-232, looked up)
Noggin: QHYLHIRPAPSDNLPLVDLIEHPDPIFDPKEKDLNETLLRSLLGGHYDPGFMATSPPEDRPGGGGGAAGGAEDLAELDQLLRQRPSGAMPSEIKGLEFSEGLAQGKKQRLSKKLRRKLQMWLWSQTFCPVLYAWNDLGSRFWPRYVKVGSCFSKRSCSVPEGMVCKPSKSVHLTVLRWRCQRRGGQRCGWIPIQYPIISECKCSC
In the case of B4, the “Lgr5 expression relative to organoids cultured without Noggin” value in assay [4] was 2 fold.

B5: Cyr61: growth factor (Peprotech) (protein, UniProt O00622 25-381, looked up)
CCN family member 1: TCPAACHCPLEAPKCAPGVGLVRDGCGCCKVCAKQLNEDCSKTQPCDHTKGLECNFGASSTALKGICRAQSEGRPCEYNSRIYQNGESFQPNCKHQCTCIDGAVGCIPLCPQELSLPNLGCPNPRLVKVTGQCCEEWVCDEDSIKDPMEDQDGLLGKELGFDASEVELTRNNELIAVGKGSSLKRLPVFGMEPRILYNPLQGQKCIVQTTSWSQCSKTCGTGISTRVTNDNPECRLVKETRICEVRPCGQPVYSSLKKGKKCSKTKKSPEPVRFTYAGCLSVKKYRPKYCGSCVDGRCCTPQLTRTVKMRFRCEDGETFSKNVMMIQSCKCNYNCPHANEAAFPFYRLFNDIHKFRD
On to B5, for which, in assay [1], the “Activity (plating efficiency compared with control after 4 days culture)” value is listed as 0.

B6: GDNF: growth factor (Peprotech) (protein, UniProt P39905 78-211, looked up)
Glial cell line-derived …: SPDKQMAVLPRRERNRQAAAANPENSRGKGRRGQRGKNRGCVLTAIHLNVTDLGLGYETKEELIFRYCSGSCDAAETTYDKILKNLSRNRRLVSDKVGQACCRPIAFDDDLSFLDDNLVYHILRKHSAKRCGCI
Turning to B6, the “Activity (plating efficiency compared with control after 4 days culture)” value in assay [1] is on record as 0.

B7: BDNF: brain-derived neurotrophic factor (protein, UniProt P23560 19-247, looked up)
Neurotrophic factor BDNF …: APMKEANIRGQGGLAYPGVRTHGTLESVNGPKAGSRGLTSLADTFEHVIEELLDEDQKVRPNEENNKDADLYTSRVMLSSQVPLEPPLLFLLEEYKNYLDAANMSMRVRRHSDPARRGELSVCDSISEWVTAADKKTAVDMSGGTVTVLEKVPVSKGQLKQYFYETKCNPMGYTKEGCRGIDKRHWNSQCRTTQSYVRALTMDSKKRIGWRFIRIDTSCVCTLTIKRGR
In the case of B7, the “Activity (plating efficiency compared with control after 4 days culture)” value in assay [1] turned out to be 0.
